Values of other authors, collected in PMC4857727.

Assays:
[1] = molecular target: Syndecan peptide (Homo sapiens) (UniProt P31431)
[2] = molecular target: IL5R-alpha peptide (Homo sapiens) (UniProt Q01344)
UniProt Q01344, sequence (Q01344 21-420): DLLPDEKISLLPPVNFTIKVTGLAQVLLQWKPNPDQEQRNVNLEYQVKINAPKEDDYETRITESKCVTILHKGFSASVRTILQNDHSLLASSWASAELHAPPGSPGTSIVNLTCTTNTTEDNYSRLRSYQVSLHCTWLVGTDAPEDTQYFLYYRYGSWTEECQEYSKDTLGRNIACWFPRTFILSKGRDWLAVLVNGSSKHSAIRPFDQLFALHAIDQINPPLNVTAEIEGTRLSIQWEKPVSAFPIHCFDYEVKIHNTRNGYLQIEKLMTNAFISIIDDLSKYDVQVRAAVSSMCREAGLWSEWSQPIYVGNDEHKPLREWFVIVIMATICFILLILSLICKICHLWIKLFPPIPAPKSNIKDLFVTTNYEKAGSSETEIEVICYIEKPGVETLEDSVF

UniProt P31431, sequence (P31431 19-198): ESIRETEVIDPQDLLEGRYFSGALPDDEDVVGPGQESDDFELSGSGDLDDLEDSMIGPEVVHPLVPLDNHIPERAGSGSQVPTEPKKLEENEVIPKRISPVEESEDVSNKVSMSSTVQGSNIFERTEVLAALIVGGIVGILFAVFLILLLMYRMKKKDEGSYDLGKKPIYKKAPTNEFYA

Kd [1]: 2.9 µM
Kd [2]: 43.8 µM
Substance: Syntenin PDZ2 (from UniProt O00560)
